Laboratory results published in US20250154226A1, “LONG-ACTING GLP-1/GLP-2 DUAL AGONIST COMPOUND” (CHENGDU AODA BIOTECHNOLOGY CO., LTD, priority 2022, published 2025).
Each block holds one molecule with its values, some of them ahead of it. Starred links: 1 amine or outer side, 2 acyl side, 3 side chain; linkers in the order of their positions; H or OH if unused. Non-standard residues stand in square brackets, D forms with d. Residues, ends and D or L forms follow the SMILES beside them. Groups on a side chain read outwards from the residue. No end group written: not given here. *: point of attachment. C18 diacid = O=C(O)CCCCCCCCCCCCCCCCC(=O)*; γGlu = O=C(O)[C@H](CCC(=O)[*:2])N[*:1]; AEEA = NCCOCCOCC(=O)O; Aib = CC(C)(N)C(=O)O; AEA = NCCOCC(=O)O

Experiments:
GLP-2R = biological target: T1, GLP-2R (Homo sapiens, UniProt O95838); test: Determination of GLP-2 activity: cAMP chemiluminescence (RLU) in CHO-K1 cell line stably expressing GLP-2R; type: cell-based; settings: read-out: GLP-2 activity [EC50 (nmol)]
T1 construct: expressed in transfected cells; host or cells: CHO-K1
T1 sequence (O95838 1-553): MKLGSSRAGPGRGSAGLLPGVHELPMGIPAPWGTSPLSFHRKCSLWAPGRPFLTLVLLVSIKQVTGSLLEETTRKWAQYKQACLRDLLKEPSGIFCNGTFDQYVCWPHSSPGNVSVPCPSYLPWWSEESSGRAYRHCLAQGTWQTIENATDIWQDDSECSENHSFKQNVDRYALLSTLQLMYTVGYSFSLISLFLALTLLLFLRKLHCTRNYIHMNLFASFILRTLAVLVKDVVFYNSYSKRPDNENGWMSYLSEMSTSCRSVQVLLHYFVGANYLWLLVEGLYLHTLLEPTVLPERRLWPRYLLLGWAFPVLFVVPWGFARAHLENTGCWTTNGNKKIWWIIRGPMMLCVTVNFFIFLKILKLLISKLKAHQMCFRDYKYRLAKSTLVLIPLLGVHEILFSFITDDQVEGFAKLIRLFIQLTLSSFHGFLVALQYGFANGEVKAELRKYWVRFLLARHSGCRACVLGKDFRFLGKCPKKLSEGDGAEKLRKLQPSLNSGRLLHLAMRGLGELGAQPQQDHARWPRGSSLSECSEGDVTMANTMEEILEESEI
Description: (§1) GLP-2R, under the stimulation of its specific agonist, can activate the intracellular adenylate cyclase pathway, and increase the level of cAMP, finally leading to the generation and release of insulin. The stimulation of the cell lines stably transfected with […] by the agonist to be tested can lead to rapid increase in the intracellular cAMP level, and the relative light units (RLUs) after stimulating the cells at each dose are determined by chemiluminescence method to calculate the EC50 of the agonist. This method for determining activity is commonly used for GLP-2 receptor agonist activity analysis at home and abroad.
CHO-K1 cell line stably expressing GLP-2R was stimulated with the agonist at different concentrations. The EC50 value of the agonist was calculated by determining the relative light units after stimulating the cells at each dose.

GLP-1R = biological target: T2, GLP-1R (Homo sapiens, UniProt P43220); test: Determination of GLP-1 activity: cAMP chemiluminescence (RLU) in CHO-K1 cell line stably expressing GLP-1R; type: cell-based; settings: read-out: GLP-1 activity [EC50 (pmol)]
T2 construct: expressed in transfected cells; host or cells: CHO-K1
T2 sequence (P43220 24-463, species assumed): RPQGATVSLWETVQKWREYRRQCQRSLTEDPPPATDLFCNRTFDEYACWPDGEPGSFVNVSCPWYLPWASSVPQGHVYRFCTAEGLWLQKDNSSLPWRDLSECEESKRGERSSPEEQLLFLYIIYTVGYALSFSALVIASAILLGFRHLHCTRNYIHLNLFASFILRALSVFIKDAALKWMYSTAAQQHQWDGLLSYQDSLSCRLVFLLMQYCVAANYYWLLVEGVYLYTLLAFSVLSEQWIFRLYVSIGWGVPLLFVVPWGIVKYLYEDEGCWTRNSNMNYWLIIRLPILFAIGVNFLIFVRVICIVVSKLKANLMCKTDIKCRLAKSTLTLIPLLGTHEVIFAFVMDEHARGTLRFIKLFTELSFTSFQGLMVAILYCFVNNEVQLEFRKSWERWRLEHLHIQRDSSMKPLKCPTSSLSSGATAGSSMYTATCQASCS
Description: as §1, with “GLP-1R,” for “GLP-2R,”, “GLP-1” for “GLP-2”
CHO-K1 cell line stably expressing GLP-1R was stimulated with the agonist at different concentrations. The EC50 value of the agonist was calculated by determining the relative light units after stimulating the cells at each dose.

[1] = biological target: glucagon-like peptide-1 (GLP-1) receptor
[2] = biological target: glucagon-like peptide-2 (GLP-2) receptor

Molecule: CC[C@H](C)[C@H](NC(=O)[C@H](Cc1ccccc1)NC(=O)[C@H](CC(=O)O)NC(=O)[C@H](CCCNC(=N)N)NC(=O)[C@H](C)NC(=O)[C@H](C)NC(=O)[C@H](CCC(N)=O)NC(=O)[C@H](CCCCNC(=O)COCCNC(=O)CC[C@H](NC(=O)CCCCCCCCCCCCCCCCC(=O)O)C(=O)O)NC(=O)[C@H](CC(=O)O)NC(=O)[C@H](CC(C)C)NC(=O)[C@@H](NC(=O)[C@@H](NC(=O)[C@H](C)NC(=O)[C@H](CC(C)C)NC(=O)[C@H](CCC(=O)O)NC(=O)[C@H](CO)NC(=O)[C@@H](NC(=O)[C@H](Cc1ccccc1)NC(=O)[C@H](CO)NC(=O)CNC(=O)[C@H](CCC(=O)O)NC(=O)C(C)(C)NC(=O)[C@@H](N)Cc1c[nH]cn1)[C@@H](C)O)[C@@H](C)O)[C@@H](C)CC)C(=O)N[C@@H](C)C(=O)N[C@@H](Cc1c[nH]c2ccccc12)C(=O)N[C@@H](CC(C)C)C(=O)N[C@H](C(=O)N[C@@H](CCC(N)=O)C(=O)N[C@@H](Cc1c[nH]cn1)C(=O)N[C@@H](CCCCN)C(=O)N[C@H](C(=O)N[C@H](C(=O)N[C@@H](CC(=O)O)C(N)=O)[C@@H](C)O)[C@@H](C)CC)[C@@H](C)CC [Compound 2, His-Aib-Glu-Gly-Ser-Phe-Thr-Ser-Glu-Leu-Ala-Thr-Ile-Leu-Asp-Lys(PEG1CH2CO-γGlu-octadecanedioic acid)-Gln-Ala-Ala-Arg-Asp-Phe-Ile-Ala-Trp-Leu-Ile-Gln-His-Lys-Ile-Thr-Asp-NH2] (H-H[Aib]EGSFTSELATILDK([AEA-γGlu-C18 diacid])QAARDFIAWLIQHKITD-NH2; N-terminus assumed)
EC50 (GLP-2R): 5.51 nM | EC50 (GLP-1R): 0.0686 nM

Molecule: CC[C@H](C)[C@H](NC(=O)[C@H](Cc1ccccc1)NC(=O)[C@H](CC(=O)O)NC(=O)[C@H](CCCNC(=N)N)NC(=O)[C@H](C)NC(=O)[C@H](C)NC(=O)[C@H](CCC(N)=O)NC(=O)[C@H](CCCCNC(=O)CC[C@H](NC(=O)CCCCCCCCCCCCCCCCC(=O)O)C(=O)O)NC(=O)[C@H](CC(=O)O)NC(=O)[C@H](CC(C)C)NC(=O)[C@@H](NC(=O)[C@@H](NC(=O)[C@H](C)NC(=O)[C@H](CC(C)C)NC(=O)[C@H](CCC(=O)O)NC(=O)[C@H](CO)NC(=O)[C@@H](NC(=O)[C@H](Cc1ccccc1)NC(=O)[C@H](CO)NC(=O)CNC(=O)[C@H](CCC(=O)O)NC(=O)C(C)(C)NC(=O)[C@@H](N)Cc1c[nH]cn1)[C@@H](C)O)[C@@H](C)O)[C@@H](C)CC)C(=O)N[C@@H](C)C(=O)N[C@@H](Cc1c[nH]c2ccccc12)C(=O)N[C@@H](CC(C)C)C(=O)N[C@H](C(=O)N[C@@H](CCC(N)=O)C(=O)N[C@@H](Cc1c[nH]cn1)C(=O)N[C@@H](CCCCN)C(=O)N[C@H](C(=O)N[C@H](C(=O)N[C@@H](CC(=O)O)C(N)=O)[C@@H](C)O)[C@@H](C)CC)[C@@H](C)CC [Compound 1, His-Aib-Glu-Gly-Ser-Phe-Thr-Ser-Glu-Leu-Ala-Thr-Ile-Leu-Asp-Lys(γGlu-octadecanedioic acid-Gln-Ala-Ala-Arg-Asp-Phe-Ile-Ala-Trp-Leu-Ile-Gln-His-Lys-Ile-Thr-Asp-NH2] (H-H[Aib]EGSFTSELATILDK([γGlu-C18 diacid])QAARDFIAWLIQHKITD-NH2)
EC50 (GLP-2R): 6.04 nM | EC50 (GLP-1R): 0.0947 nM

B2: Compound 1 (peptide)
peptide: H[Aib]EGSFTSELATILDK([γGlu-C18 diacid])QAARDFIAWLIQHKITD-NH2
modifications: N-terminus assumed
SMILES: CC[C@H](C)[C@H](NC(=O)[C@H](Cc1ccccc1)NC(=O)[C@H](CC(=O)O)NC(=O)[C@H](CCCNC(=N)N)NC(=O)[C@H](C)NC(=O)[C@H](C)NC(=O)[C@H](CCC(N)=O)NC(=O)[C@H](CCCCNC(=O)CC[C@H](NC(=O)CCCCCCCCCCCCCCCCC(=O)O)C(=O)O)NC(=O)[C@H](CC(=O)O)NC(=O)[C@H](CC(C)C)NC(=O)[C@@H](NC(=O)[C@@H](NC(=O)[C@H](C)NC(=O)[C@H](CC(C)C)NC(=O)[C@H](CCC(=O)O)NC(=O)[C@H](CO)NC(=O)[C@@H](NC(=O)[C@H](Cc1ccccc1)NC(=O)[C@H](CO)NC(=O)CNC(=O)[C@H](CCC(=O)O)NC(=O)C(C)(C)NC(=O)[C@@H](N)Cc1c[nH]cn1)[C@@H](C)O)[C@@H](C)O)[C@@H](C)CC)C(=O)N[C@@H](C)C(=O)N[C@@H](Cc1c[nH]c2ccccc12)C(=O)N[C@@H](CC(C)C)C(=O)N[C@H](C(=O)N[C@@H](CCC(N)=O)C(=O)N[C@@H](Cc1c[nH]cn1)C(=O)N[C@@H](CCCCN)C(=O)N[C@H](C(=O)N[C@H](C(=O)N[C@@H](CC(=O)O)C(N)=O)[C@@H](C)O)[C@@H](C)CC)[C@@H](C)CC
GLP-1 activity [EC50 (pmol)] [1]: 94.7 pmol | GLP-2 activity [EC50 (nmol)] [2]: 6.04 nmol

Molecule: H[Aib]EGSFTSELATILDK([PEG1CH2CO-γGlu-C18 diacid])QAARDFIAWLIQHKITD-NH2 [Compound 2]
GLP-1 activity [EC50 (pmol)] [1]: 68.7 pmol | GLP-2 activity [EC50 (nmol)] [2]: 5.51 nmol

Now from value to molecule:

GLP-1 activity [EC50 (pmol)] [1]: 72.8 pmol | GLP-2 activity [EC50 (nmol)] [2]: 5.54 nmol
Molecule: H[Aib]EGSFTSELATILDK([PEG4CH2CO-γGlu-C18 diacid])QAARDFIAWLIQHKITD-NH2 [Compound 5]

GLP-1 activity [EC50 (pmol)] [1]: 60.1 pmol | GLP-2 activity [EC50 (nmol)] [2]: 4.7 nmol
B1: Compound 3 (peptide)
peptide: H[Aib]EGSFTSELATILDK([AEEA-γGlu-C18 diacid])QAARDFIAWLIQHKITD-NH2
modifications: N-terminus assumed
SMILES: CC[C@H](C)[C@H](NC(=O)[C@H](Cc1ccccc1)NC(=O)[C@H](CC(=O)O)NC(=O)[C@H](CCCNC(=N)N)NC(=O)[C@H](C)NC(=O)[C@H](C)NC(=O)[C@H](CCC(N)=O)NC(=O)[C@H](CCCCNC(=O)COCCOCCNC(=O)CC[C@H](NC(=O)CCCCCCCCCCCCCCCCC(=O)O)C(=O)O)NC(=O)[C@H](CC(=O)O)NC(=O)[C@H](CC(C)C)NC(=O)[C@@H](NC(=O)[C@@H](NC(=O)[C@H](C)NC(=O)[C@H](CC(C)C)NC(=O)[C@H](CCC(=O)O)NC(=O)[C@H](CO)NC(=O)[C@@H](NC(=O)[C@H](Cc1ccccc1)NC(=O)[C@H](CO)NC(=O)CNC(=O)[C@H](CCC(=O)O)NC(=O)C(C)(C)NC(=O)[C@@H](N)Cc1c[nH]cn1)[C@@H](C)O)[C@@H](C)O)[C@@H](C)CC)C(=O)N[C@@H](C)C(=O)N[C@@H](Cc1c[nH]c2ccccc12)C(=O)N[C@@H](CC(C)C)C(=O)N[C@H](C(=O)N[C@@H](CCC(N)=O)C(=O)N[C@@H](Cc1c[nH]cn1)C(=O)N[C@@H](CCCCN)C(=O)N[C@H](C(=O)N[C@H](C(=O)N[C@@H](CC(=O)O)C(N)=O)[C@@H](C)O)[C@@H](C)CC)[C@@H](C)CC

GLP-1 activity [EC50 (pmol)] [1]: 60 pmol | GLP-2 activity [EC50 (nmol)] [2]: 4.33 nmol
Molecule: H[Aib]EGSFTSELATILDK([PEG3CH2CO-γGlu-C18 diacid])QAARDFIAWLIQHKITD-NH2 [Compound 4]

GLP-1 activity [EC50 (pmol)] [1]: 79.5 pmol | GLP-2 activity [EC50 (nmol)] [2]: 4.62 nmol
Molecule: H[Aib]EGSFTSELATILDK([PEG5CH2CO-γGlu-C18 diacid])QAARDFIAWLIQHKITD-NH2 [Compound 6]
